In patent publication US20140010817A1 (Daiichi Sankyo, published 2014):

Key:
[1] = target: T1, RX protein purified from the culture supernatant of ADSF cells (murine mammary tumor virus (MMTV) …, UniProt P03374 99-474; P03374 475-651); test: SPR (ProteOn XPR36), humanized MAb1 captured on immobilised Protein A/G, RX protein as analyte
T1 construct: also called purified RX protein; ADSF cell-derived RX protein
Method: Specifically, a Protein A-Protein G fusion protein Protein A/G (Thermo Fisher Scientific K.K.) was immobilized on the GLM sensor chip of ProteOn XPR36 (Bio-Rad Laboratories, Inc.) by the amine coupling method. […] The dissociation constant, i.e., binding affinity, was calculated from the ratio therebetween.

[2] = target: T1, RX protein purified from the culture …; test: SPR (ProteOn XPR36), antibody immobilized by amine coupling, RX protein as analyte
From the text: (§1) Each antibody was immobilized on a sensor chip (Sensor Chip GLM; Bio-Rad Laboratories, Inc.) by the amine coupling method. The chip was blocked by the addition of 1 M ethanolamine hydrochloride (pH 8.5). ProteOn PBS/Tween, pH 7.4 (PBS, pH 7.4, 0.005% Tween 20) was used as a running buffer solution. The purified RX protein was serially diluted and interacted as an analyte with the immobilized monoclonal antibody to determine the binding affinity. The association rate constant ka and the dissociation rate constant kd were calculated by kinetics analysis using ProteOn Manager™.

[3] = target: T1, RX protein purified from the culture …; test: SPR (ProteOn XPR36), antibody immobilised by amine coupling on a GLM chip, purified RX protein as analyte
From the text: as §1

Binder	Kd [1]	further results
humanized antibody T14 (antibody, V domains shown, also called humanized MAb1 (H5/L2)) VH: EVQLVESGGGLVQPGRSLRLSCAASGFTFSDYYMAWVRQAPGKGLEWVASISYEGSNTNFGDSVKGRFTISRDSSKNTLYLKMNSLRAEDTAVYYCARWAQTGYYFDYWGQGTLVTVSS VL: DIQMTQSPSSLSASVGDRVTITCLASEDIYSNLAWYQQKPGKSPKLLIYYANSLNDGVPSRFSGSGSGTDFTLTISRLQPEDFATYYCQQNYDSPYTFGQGTKVEIKR	0.19 nM	
humanized antibody T11 (antibody, V domains shown, also called humanized MAb1 (H3/L5)) VH: EVQLVESGGGLVQPGRSLRLSCAGSGFTFSDYYMAWVRQAPGKGLEWVASISYEGSNTNFGDSVKGRFTISRDSSKNTLYLKMNSLRAEDTAVYYCARWAQTGYYFDYWGQGTLVTVSS VL: DIQMTQSPSSLSASVGDRVTITCLASEDIYSNLAWYQQKPGKSPKLLIYYANSLNDGVPSRFSGSGSGTDFTLTISSLQPEDFATYYCQQNYDSPYTFGQGTKVEIKR	0.37 nM	
humanized antibody T3 (antibody, V domains shown, also called humanized MAb1 (H1/L3)) VH: EVQLVESGGGLVQPGRSLRLSCAASGFTFSDYYMAWVRQAPGKGLEWVSSISYEGSNTNFGDSVKGRFTISRDNSKNTLYLKMNSLRAEDTAVYYCARWAQTGYYFDYWGQGTLVTVSS VL: DIQMTQSPSSLSASVGDRVTITCLASEDIYSNLAWYQQKPGKSPQLLIYYANSLNDGVPSRFSGSGSGTDFTLTISRLQPEDFATYFCQQNYDSPYTFGQGTKVEIKR	2.5 nM	
humanized antibody T8 (antibody, V domains shown, also called humanized MAb1 (H3/L1)) VH: EVQLVESGGGLVQPGRSLRLSCAGSGFTFSDYYMAWVRQAPGKGLEWVASISYEGSNTNFGDSVKGRFTISRDSSKNTLYLKMNSLRAEDTAVYYCARWAQTGYYFDYWGQGTLVTVSS VL: DIQMTQSPSSLSASVGDRVTITCLASEDIYSNLAWYQQKPGKAPKLLIYYANSLNDGVPSRFSGSGSGTDFTLTISRLQPEDFATYYCQQNYDSPYTFGQGTKVEIKR	0.17 nM	
humanized antibody T12 (antibody, V domains shown, also called humanized MAb1 (H4/L4)) VH: EVQLVESGGGLVQPGRSLRLSCAGSGFTFSDYYMAWVRQAPGKGLEWVASISYEGSNTNFGDSVKGRFTISRDSAKNTLYLKMNSLRAEDTAVYYCARWAQTGYYFDYWGQGTLVTVSS VL: DIQMTQSPSSLSASVGDRVTITCLASEDIYSNLAWYQQKPGKSPQLLIYYANSLNDGVPSRFSGSGSGTDFTLTISRLQPEDFATYFCQQNYDSPYTFGQGTKLEIKR	0.32 nM	
humanized antibody T21 (antibody, also called humanized MAb1 (H10/L1)) heavy: not shown light: DIQMTQSPSSLSASVGDRVTITCLASEDIYSNLAWYQQKPGKAPKLLIYYANSLNDGVPSRFSGSGSGTDFTLTISRLQPEDFATYYCQQNYDSPYTFGQGTKVEIKRTVAAPSVFIFPPSDEQLKSGTASVVCLLNNFYPREAKVQWKVDNALQSGNSQESVTEQDSKDSTYSLSSTLTLSKADYEKHKVYACEVTHQGLSSPVTKSFNRGEC	0.42 nM	
humanized antibody T6 (antibody, V domains shown, also called humanized MAb1 (H2/L3)) VH: EVQLVESGGGLVQPGRSLRLSCAASGFTFSDYYMAWVRQAPGKGLEWVASISYEGSNTNFGDSVKGRFTISRDNSKNTLYLKMNSLRAEDTAVYYCARWAQTGYYFDYWGQGTLVTVSS VL: DIQMTQSPSSLSASVGDRVTITCLASEDIYSNLAWYQQKPGKSPQLLIYYANSLNDGVPSRFSGSGSGTDFTLTISRLQPEDFATYFCQQNYDSPYTFGQGTKVEIKR	2 nM	
humanized antibody T15 (antibody, V domains shown, also called humanized MAb1 (H5/L5)) VH: EVQLVESGGGLVQPGRSLRLSCAASGFTFSDYYMAWVRQAPGKGLEWVASISYEGSNTNFGDSVKGRFTISRDSSKNTLYLKMNSLRAEDTAVYYCARWAQTGYYFDYWGQGTLVTVSS VL: DIQMTQSPSSLSASVGDRVTITCLASEDIYSNLAWYQQKPGKSPKLLIYYANSLNDGVPSRFSGSGSGTDFTLTISSLQPEDFATYYCQQNYDSPYTFGQGTKVEIKR	0.26 nM	
humanized antibody T10 (antibody, V domains shown, also called humanized MAb1 (H3/L3)) VH: EVQLVESGGGLVQPGRSLRLSCAGSGFTFSDYYMAWVRQAPGKGLEWVASISYEGSNTNFGDSVKGRFTISRDSSKNTLYLKMNSLRAEDTAVYYCARWAQTGYYFDYWGQGTLVTVSS VL: DIQMTQSPSSLSASVGDRVTITCLASEDIYSNLAWYQQKPGKSPQLLIYYANSLNDGVPSRFSGSGSGTDFTLTISRLQPEDFATYFCQQNYDSPYTFGQGTKVEIKR	0.47 nM	
humanized antibody T2 (antibody, V domains shown, also called humanized MAb1 (H1/L2)) VH: EVQLVESGGGLVQPGRSLRLSCAASGFTFSDYYMAWVRQAPGKGLEWVSSISYEGSNTNFGDSVKGRFTISRDNSKNTLYLKMNSLRAEDTAVYYCARWAQTGYYFDYWGQGTLVTVSS VL: DIQMTQSPSSLSASVGDRVTITCLASEDIYSNLAWYQQKPGKSPKLLIYYANSLNDGVPSRFSGSGSGTDFTLTISRLQPEDFATYYCQQNYDSPYTFGQGTKVEIKR	1.9 nM	
humanized antibody T19 (antibody, also called humanized MAb1 (H8/L1)) heavy: not shown light: DIQMTQSPSSLSASVGDRVTITCLASEDIYSNLAWYQQKPGKAPKLLIYYANSLNDGVPSRFSGSGSGTDFTLTISRLQPEDFATYYCQQNYDSPYTFGQGTKVEIKRTVAAPSVFIFPPSDEQLKSGTASVVCLLNNFYPREAKVQWKVDNALQSGNSQESVTEQDSKDSTYSLSSTLTLSKADYEKHKVYACEVTHQGLSSPVTKSFNRGEC	0.69 nM	
humanized antibody T17 (antibody, V domains shown, also called humanized MAb1 (H6/L5)) VH: EVQLVESGGGLVQPGRSLRLSCAGSGFTFSDYYMAWVRQAPGKGLEWVASISYEGSNTNFGDSVKGRFTISRDNSKNTLYLKMNSLRAEDTAVYYCARWAQTGYYFDYWGQGTLVTVSS VL: DIQMTQSPSSLSASVGDRVTITCLASEDIYSNLAWYQQKPGKSPKLLIYYANSLNDGVPSRFSGSGSGTDFTLTISSLQPEDFATYYCQQNYDSPYTFGQGTKVEIKR	2 nM	
humanized antibody T9 (antibody, V domains shown, also called humanized MAb1 (H3/L2)) VH: EVQLVESGGGLVQPGRSLRLSCAGSGFTFSDYYMAWVRQAPGKGLEWVASISYEGSNTNFGDSVKGRFTISRDSSKNTLYLKMNSLRAEDTAVYYCARWAQTGYYFDYWGQGTLVTVSS VL: DIQMTQSPSSLSASVGDRVTITCLASEDIYSNLAWYQQKPGKSPKLLIYYANSLNDGVPSRFSGSGSGTDFTLTISRLQPEDFATYYCQQNYDSPYTFGQGTKVEIKR	0.25 nM	
humanized antibody T18 (antibody, V domains shown, also called humanized MAb1 (H7/L2)) VH: EVQLVESGGGLVQPGRSLRLSCAGSGFTFSDYYMAWVRQAPGKGLEWVASISYEGSNTNFGDSVKGRFTISRDSSKNTLYLQMNSLRAEDTAVYYCARWAQTGYYFDYWGQGTLVTVSS VL: DIQMTQSPSSLSASVGDRVTITCLASEDIYSNLAWYQQKPGKSPKLLIYYANSLNDGVPSRFSGSGSGTDFTLTISRLQPEDFATYYCQQNYDSPYTFGQGTKVEIKR	0.22 nM	
humanized antibody T1 (antibody, V domains shown, also called humanized MAb1 (H1/L1)) VH: EVQLVESGGGLVQPGRSLRLSCAASGFTFSDYYMAWVRQAPGKGLEWVSSISYEGSNTNFGDSVKGRFTISRDNSKNTLYLKMNSLRAEDTAVYYCARWAQTGYYFDYWGQGTLVTVSS VL: DIQMTQSPSSLSASVGDRVTITCLASEDIYSNLAWYQQKPGKAPKLLIYYANSLNDGVPSRFSGSGSGTDFTLTISRLQPEDFATYYCQQNYDSPYTFGQGTKVEIKR	2.5 nM	
humanized antibody T4 (antibody, V domains shown, also called humanized MAb1 (H2/L1)) VH: EVQLVESGGGLVQPGRSLRLSCAASGFTFSDYYMAWVRQAPGKGLEWVASISYEGSNTNFGDSVKGRFTISRDNSKNTLYLKMNSLRAEDTAVYYCARWAQTGYYFDYWGQGTLVTVSS VL: DIQMTQSPSSLSASVGDRVTITCLASEDIYSNLAWYQQKPGKAPKLLIYYANSLNDGVPSRFSGSGSGTDFTLTISRLQPEDFATYYCQQNYDSPYTFGQGTKVEIKR	2 nM	
humanized antibody T16 (antibody, V domains shown, also called humanized MAb1 (H6/L2)) VH: EVQLVESGGGLVQPGRSLRLSCAGSGFTFSDYYMAWVRQAPGKGLEWVASISYEGSNTNFGDSVKGRFTISRDNSKNTLYLKMNSLRAEDTAVYYCARWAQTGYYFDYWGQGTLVTVSS VL: DIQMTQSPSSLSASVGDRVTITCLASEDIYSNLAWYQQKPGKSPKLLIYYANSLNDGVPSRFSGSGSGTDFTLTISRLQPEDFATYYCQQNYDSPYTFGQGTKVEIKR	1.9 nM	
Monoclonal Antibody 3 (MAb3) (antibody, V domains shown) VH: QVKLEESGGGLVKPGGSLKLSCAASGFSFSRNVMSWVRQTPEKRLEWVATISAGGSYTYYPDSVKGRFTISRDNAKNTLYLQMSSLRSEDTAMYYCARLNYNDNGNYFDYWGQGTTLTVSS VL: DIVMTQSTAIMSASLGEKVTMSCRASSSVVYMYWYQQKSDASPKLWIYYTSNLAPGVPARFSGSGSGNSYSLTISSMEGEDAATYYCQQFTSSPYTFGGGTKLEIKR		Kd [2]: ~0.1 nM; Kd [3]: 0.62 nM; koff [3]: 0.0017 s⁻¹; kon [3]: 2.8e+06 M⁻¹ s⁻¹
Monoclonal Antibody 1 (MAb1) (antibody, also called rat antibody MAb1; recombinant MAb1) heavy: EVQLVESGGGLVQPGRSLKLSCVGSGFTFSDYYMAWVRQAPKKGLEWVASISYEGSNTNFGDSVKGRFTISRDSAKSTLYLQMNSLRSEDTATYYCARWAQTGYYFDYWGQGVMVTVSSAETTAPSVYPLAPGTALKSNSMVTLGCLVKGYFPEPVTVTWNSGALSSGVHTFPAVLQSGLYTLTSSVTVPSSTWSSQAVTCNVAHPASSTKVDKKIVPRECNPCGCTGSEVSSVFIFPPKTKDVLTITLTPKVTCVVVDISQNDPEVRFSWFIDDVEVHTAQTHAPEKQSNSTLRSVSELPIVHRDWLNGKTFKCKVNSGAFPAPIEKSISKPEGTPRGPQVYTMAPPKEEMTQSQVSITCMVKGFYPPDIYTEWKMNGQPQENYKNTPPTMDTDGSYFLYSKLNVKKETWQQGNTFTCSVLHEGLHNHHTEKSLSHSPGK light: DIQMTQSPASLSASLGETVTIECLASEDIYSNLAWYQQKPGKSPQLLIYYANSLNDGVPSRFSGSGSGTQFSLKINSLQSEDVSIYFCQQNYDSPYTFGAGAKLELKRADAAPTVSIFPPSTKQLATGGASVVCLMNNFYPRDISVKWKIDGTERRDGVLDSVTDQDSKDSTYSMSSTLSLTKADYESHNLYTCEVVHKTSSSPVVKSFNRNEC		Kd [2]: ~0.1 nM; Kd [3]: 0.16 nM
